This is an account of results in patent US20210277137A1.

This assay concerns the target human CD40 on cells (human) (UniProt P25942). As to the kind of experiment: cell-based or functional assay.

Chain of human CD40 on cells (human) (P25942 21-277 limits assumed): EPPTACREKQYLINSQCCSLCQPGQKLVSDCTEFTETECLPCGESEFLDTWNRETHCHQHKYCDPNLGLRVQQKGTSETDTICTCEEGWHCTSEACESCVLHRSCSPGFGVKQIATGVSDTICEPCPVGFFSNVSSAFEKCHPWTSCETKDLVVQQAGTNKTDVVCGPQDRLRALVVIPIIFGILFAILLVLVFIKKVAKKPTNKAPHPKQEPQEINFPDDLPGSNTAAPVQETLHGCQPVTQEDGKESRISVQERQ

In the case of literature CD40 antibody G28-5, the Monocyte activation (THP1-Xblue, OD655) worked out at 0.12 OD655 and the moDC activation (IL-12p70, pg/mL) stood at 139 pg/mL.
